Data set [1] has as its system human LPA gene (Genbank number: NM_005577.4). Put plainly: Inhibitory activity against LPA mRNA, psiCHECK-2 dual-luciferase reporter vector in Huh7 cells. It is filed as cell-based. The following applies: Huh7 cells transfected with LPA_psiCHECK-2 plasmid, RNAiMAX transfection. The protocol:
A stock solution was prepared by dissolving in PBS and stored at -20 °C.
The human LPA gene (Genbank number: NM_005577.4) was cloned into the psiCHECK™-2 vector.
Huh7 cells were cultured in DMEM (Gibco-11995-065, 500 mL) medium, supplemented with FBS (ExCellBio-FSP500, 57 mL), Penicillin-Streptomycin solution (Hyclone-SV30010, 5.7 mL), GlutaMAX™ (Gibco-35050-061, 5.7 mL) and Non-Essential Amino Acids Solution (Gibco-11140050, 5.7 mL).
On Day 1, a method for transfection of the LPA_PSICHECK (TM)-2 plasmid is briefly described as follows: Huh7 cells were washed with DPBS, followed by digestion with 0.05% trypsin, gently pipetted into single cells in DMEM containing 10% FBS, and counted. Plasmid DNA was transferred into Huh7 cells using Fugene HD. The transfected cells were seeded into 96-well plates at a density of 10,000 cells per well, with 100 µL culture medium per well. The cells were incubated overnight in a 5% CO2 incubator at 37 °C.
On Day 2, the test compounds were diluted serially with PBS to 3 concentrations.
RNAiMAX transfection reagent was prepared by blending homogeneously with Opti-MEM at a ratio of RNAiMAX: Opti-MEM=3:47 in a 15 mL centrifuge tube as needed. The compounds were mixed with the RNAiMAX/Opti-MEM (1:1) and incubated for 15 min. The compound-containing RNAiMAX/Opti-MEM mixture was diluted 10-fold with fresh medium and blended homogeneously.
The medium in each well was aspirated, and then 100 µL of the fresh compound-containing medium was added, and then incubated in a 5% CO2, 37 °C incubator.
Experimental procedures refer to DUAL-GLO® Dual Luciferase Assay System instructions, briefly described as follows: Taking out the cells from the incubator, aspirating and discarding the supernatant, adding 75µL fresh culture medium and 75µL detection reagent, shaking for 10 minutes in the dark, and after the cells had been fully lysed, transfering100µL sample to an opaque whiteboard for detecting the Firefly luminescence signal; adding 50 µL Dual-Glo®Stop & Glo® test reagent to each well and detecting the Renilla luciferase signal after shaking for 10 minutes in the dark. The ratio of the reporter signal to the internal control reporter signal was calculated for each well.
[formula] % Inhibition = (1-Sampleratio/RNAiMAXcontrolratio) × 100% [formula]

The subject of a further data set is hPBMCs. Put plainly: Immunogenicity test in hPBMCs (IL-6 and TNF-α ELISA of supernatant). The following applies: donor 1 hPBMCs, 18-20 h. It is filed as cell-based, human. The protocol:
1 Experimental material • 1.1 Double-stranded siRNA conjugates • 1.2 hPBMCs, purchased from Shanghai Sailybio Medical Co., LTD. • 1.3 Main reagents: Penicillin-Streptomycin (Cat. No.: 15140122), RNase-free water (Cat. No.: AM9938), IL-6 ELISA kit (Cat. No.: 555220), TNF-α ELISA kit (Cat. No.: 555212), LPS (Cat. No.: L2630), etc. 2 Experimental method • 2.1 Compound Preparation: Compounds were prepared as stock solutions with enzyme-free water. Compound weight = powder weight * purity. The concentration of prepared solutions was 900 µg/mL, followed by three-fold serial dilution with enzyme-free water. Each concentration was diluted 10-fold with 1640 medium, resulting in a final enzyme-free water content of 5.0%. • 2.2 Experimental procedure: • 2.2.1 PBMC cells were resuscitated one day in advance and incubated overnight in 1640 complete medium. • 2.2.2 On the day of the experiment, PBMC cells were centrifuged at 300 × g for 8 minutes, and the cell density was adjusted to 1.6 × 10^6 mL with 1640 complete medium. The cells were then added to a 96-well plate, 125 µL per well, and incubated in a 37 °C, 5% CO2 incubator for 15 minutes. • 2.2.3 The diluted test compounds were added to the 96-well plate according to the plate map, all in duplicate, 125 µL for each well; the positive control group and the blank group were added with an equal volume of 1640 complete culture medium containing the same amount of enzyme-free water. • 2.2.4 After gently shaking, the well plates were incubated in an incubator at 37 °C for 18-20 h. The supernatant was collected by centrifugation, and secretions of TNF-α and IL-6 were detected by ELISA. • 2.2.5 Data were analyzed using GraphPad Prism 8 software. 3 Experimental results Table 10. IL-6 and TNF-α levels in the cell supernatant of donor 1 hPBMCs treated with different doses of test compounds
For orientation: In an ELISA, binding on a coated surface is turned into a signal by an enzyme label.

Broadly, the EC50 is the concentration needed to bring the measured effect to its halfway point. Read a high EC50 as a less potent agent. In data set [1], “Z1: siRNA conjugate: sense SEQ ID NO:27, ligand D08 at 3' end of sense strand, antisense SEQ ID NO:56 (sense CCCTTATTGTTATACG; antisense ATCCCTCGTANAACAATAAGGGGCTGTT; 2'-OMe/2'-F modified, ligand at sense 3' end, full pattern not given here)” came in with an EC50 of 0.12 nM.

On to “Z2: siRNA conjugate: sense SEQ ID NO:28, ligand D08 at 3' end of sense strand, antisense SEQ ID NO:56 (sense CCCCTTATTGTTATAC; antisense ATCCCTCGTANAACAATAAGGGGCTGTT; 2'-OMe/2'-F modified, ligand at sense 3' end, full pattern not given here)”, for which, in data set [1], the EC50 was found to be 0.48 nM.

For “Z6: siRNA conjugate: sense SEQ ID NO:27, ligand D08 at 3' end of sense strand, antisense SEQ ID NO:57 (sense CCCTTATTGTTATACG; antisense TCGTANAACAATAAGGGGCTGTT; ligand D08 at sense 3' end; listed as RNA; modified_base 1..2: mod_base = OTHER; note = 2'-O-methylcytidine; modified_base 3: mod_base = OTHER; modified_base 4: mod_base = OTHER; note = 2'-O-methyluridine; modified_base 5: mod_base = OTHER; note = 2'-fluorou; modified_base 1: mod_base = OTHER; note = E-type vinylphosphonate-modified 2'-O-methyluridine; modified_base 2: mod_base = OTHER; note = 2'-fluorocytidine; note = 2'-O-methylguanosine; modified_base 4: mo)”, in data set [1], the midpoint of the response, the EC50, lay at 0.42 nM.

As to “Z38: siRNA conjugate: sense SEQ ID NO:49, ligand D01 at 3' end of sense strand, antisense SEQ ID NO:77 (sense CAGCCCCTTATTGTTATACGA; antisense NCGTATNACAATAAGGGGCNGTT; ligand D01 at sense 3' end; listed as RNA; modified_base 1: mod_base = OTHER; note = 2'-O-methylcytidine; modified_base 2: mod_base = OTHER; note = 2'-O-methyladenosine; modified_base 3: mod_base = OTHER; note = 2'-O-methylguanosine; modified_base 4..7: mod_base = OTHER; note = 2'-O-me; note = n is mDVPU; note = 2'-deoxycytidine; modified_base 4: mod_base = OTHER; note = 2'-O-methyluridine;)”, the IL-6 is 1281.4 pg/mL in the data set with hPBMCs (5 µg/mL), 1257.1 pg/mL in the data set on hPBMCs (15 µg/mL) and 1268.3 pg/mL in the data set with hPBMCs (45 µg/mL). Also, the TNF alpha in the data set with hPBMCs (5 µg/mL) is reported as 33.5 pg/mL; with hPBMCs (15 µg/mL), 34.8 pg/mL; in the data set with hPBMCs (45 µg/mL), 34.4 pg/mL.

With “Z39: siRNA conjugate: sense SEQ ID NO:49, ligand D21 at 3' end of sense strand, antisense SEQ ID NO:77 (sense CAGCCCCTTATTGTTATACGA; antisense NCGTATNACAATAAGGGGCNGTT; ligand D21 at sense 3' end; listed as RNA; modified_base 1: mod_base = OTHER; note = 2'-O-methylcytidine; modified_base 2: mod_base = OTHER; note = 2'-O-methyladenosine; modified_base 3: mod_base = OTHER; note = 2'-O-methylguanosine; modified_base 4..7: mod_base = OTHER; note = 2'-O-me; note = n is mDVPU; note = 2'-deoxycytidine; modified_base 4: mod_base = OTHER; note = 2'-O-methyluridine;)”, the IL-6 in the data set on hPBMCs (5 µg/mL) is 1333.6 pg/mL; in the data set with hPBMCs (15 µg/mL) it was 1304.8 pg/mL; in the data set on hPBMCs (45 µg/mL) it was 1297.0 pg/mL. Also, the TNF alpha stood at 31.4 pg/mL in the data set with hPBMCs (5 µg/mL), 32.6 pg/mL in the data set on hPBMCs (15 µg/mL) and 33.3 pg/mL with hPBMCs (45 µg/mL).

With “Z44: siRNA conjugate: sense SEQ ID NO:51, ligand D01 at 3' end of sense strand, antisense SEQ ID NO:82 (sense CCTGCCAAGCTTGGTCATCTA; antisense NAGATGNCCAAGCTTGGCNGGTT; ligand D01 at sense 3' end; listed as RNA; modified_base 1..2: mod_base = OTHER; note = 2'-O-methylcytidine; modified_base 3: mod_base = OTHER; note = 2'-O-methyluridine; modified_base 4: mod_base = OTHER; note = 2'-O-methylguanosine; modified_base 5..6: mod_base = OTHER; note = 2'-O-m; modified_base 1: mod_base = OTHER; note = n is mDVPU; modified_base 2: mod_base = OTHER; note = 2'-deoxyadenosine; note = 2'-O-methyladenosi)”, the IL-6 in the data set with hPBMCs (5 µg/mL) is 1326.7 pg/mL; in the data set with hPBMCs (15 µg/mL), 1331.0 pg/mL; with hPBMCs (45 µg/mL), 1354.7 pg/mL. In addition, the TNF alpha is 34.6 pg/mL in the data set with hPBMCs (5 µg/mL), 35.2 pg/mL in the data set with hPBMCs (15 µg/mL) and 35.8 pg/mL with hPBMCs (45 µg/mL).

Take “Z45: siRNA conjugate: sense SEQ ID NO:50, ligand D01 at 3' end of sense strand, antisense SEQ ID NO:82 (sense CCTGCCAAGCTTGGTCATCTA; antisense NAGATGNCCAAGCTTGGCNGGTT; ligand D01 at sense 3' end; listed as RNA; modified_base 1..2: mod_base = OTHER; note = 2'-O-methylcytidine; modified_base 3: mod_base = OTHER; note = 2'-O-methyluridine; modified_base 4: mod_base = OTHER; note = 2'-O-methylguanosine; modified_base 5..6: mod_base = OTHER; note = 2'-O-m; modified_base 1: mod_base = OTHER; note = n is mDVPU; modified_base 2: mod_base = OTHER; note = 2'-deoxyadenosine; note = 2'-O-methyladenosi)”: the IL-6 in the data set with hPBMCs (5 µg/mL) is recorded as 1327.5 pg/mL; in the data set with hPBMCs (15 µg/mL) it was 1321.5 pg/mL; in the data set on hPBMCs (45 µg/mL), 1321.4 pg/mL. The TNF alpha was found to be 35.3 pg/mL in the data set with hPBMCs (5 µg/mL), 35.1 pg/mL in the data set on hPBMCs (15 µg/mL) and 34.9 pg/mL in the data set with hPBMCs (45 µg/mL).

These data come from patent EP4707393A1, “DOUBLE-STRANDED SIRNA, CONJUGATE THEREOF AND USE THEREOF” (CMS Research & Development Pte. Ltd., priority 2023, dated 2024).
